# Test results from IntAct's records for PubMed 21460798.
# B1: Probable serine/threonine-protein kinase HSL1 (Saccharomyces cerevisiae), P34244 (parent)
# chain: MTGHVSKTSHVPKGRPSSLAKKAAKRAMAKVNSNPKRASGHLERVVQSVNDATKRLSQPDSTVSVATKSSKRKSRDTVGPWKLGKTLGKGSSGRVRLAKNMETGQLAAIKIVPKKKAFVHCSNNGTVPNSYSSSMVTSNVSSPSIASREHSNHSQTNPYGIEREIVIMKLISHTNVMALFEVWENKSELYLVLEYVDGGELFDYLVSKGKLPEREAIHYFKQIVEGVSYCHSFNICHRDLKPENLLLDKKNRRIKIADFGMAALELPNKLLKTSCGSPHYASPEIVMGRPYHGGPSDVWSCGIVLFALLTGHLPFNDDNIKKLLLKVQSGKYQMPSNLSSEARDLISKILVIDPEKRITTQEILKHPLIKKYDDLPVNKVLRKMRKDNMARGKSNSDLHLLNNVSPSIVTLHSKGEIDESILRSLQILWHGVSRELITAKLLQKPMSEEKLFYSLLLQYKQRHSISLSSSSENKKSATESSVNEPRIEYASKTANNTGLRSENNDVKTLHSLEIHSEDTSTVNQNNAITGVNTEINAPVLAQKSQFSINTLSQPESDKAEAEAVTLPPAIPIFNASSSRIFRNSYTSISSRSRRSLRLSNSRLSLSASTSRETVHDNEMPLPQLPKSPSRYSLSRRAIHASPSTKSIHKSLSRKNIAATVAARRTLQNSASKRSLYSLQSISKRSLNLNDLLVFDDPLPSKKPASENVNKSEPHSLESDSDFEILCDQILFGNALDRILEEEEDNEKERDTQRQRQNDTKSSADTFTISGVSTNKENEGPEYPTKIEKNQFNMSYKPSENMSGLSSFPIFEKENTLSSSYLEEQKPKRAALSDITNSFNKMNKQEGMRIEKKIQREQLQKKNDRPSPLKPIQHQELRVNSLPNDQGKPSLSLDPRRNISQPVNSKVESLLQGLKFKKEPASHWTHERGSLFMSEHVEDEKPVKASDVSIESSYVPLTTVATSSRDPSVLAESSTIQKPMLSLPSSFLNTSMTFKNLSQILADDGDDKHLSVPQNQSRSVAMSHPLRKQSAKISLTPRSNLNANLSVKRNQGSPGSYLSNDLDGISDMTFAMEIPTNTFTAQAIQLMNNDTDNNKINTSPKASSFTKEKVIKSAAYISKEKEPDNSDTNYIPDYTIPNTYDEKAINIFEDAPSDEGSLNTSSSESDSRASVHRKAVSIDTMATTNVLTPATNVRVSLYWNNNSSGIPRETTEEILSKLRLSPENPSNTHMQKRFSSTRGSRDSNALGISQSLQSMFKDLEEDQDGHTSQADILESSMSYSKRRPSEESVNPKQRVTMLFDEEEEESKKVGGGKIKEEHTKLDNKISEESSQLVLPVVEKKENANNTENNYSKIPKPSTIKVTKDTAMESNTQTHTKKPILKSVQNVEVEEAPSSDKKNWFVKLFQNFSSHNNATKASKNHVTNISFDDAHMLTLNEFNKNSIDYQLKNLDHKFGRKVVEYDCKFVKGNFKFKIKITSTPNASTVITVKKRSKHSNTSSNKAFEKFNDDVERVIRNAGRS
# partner: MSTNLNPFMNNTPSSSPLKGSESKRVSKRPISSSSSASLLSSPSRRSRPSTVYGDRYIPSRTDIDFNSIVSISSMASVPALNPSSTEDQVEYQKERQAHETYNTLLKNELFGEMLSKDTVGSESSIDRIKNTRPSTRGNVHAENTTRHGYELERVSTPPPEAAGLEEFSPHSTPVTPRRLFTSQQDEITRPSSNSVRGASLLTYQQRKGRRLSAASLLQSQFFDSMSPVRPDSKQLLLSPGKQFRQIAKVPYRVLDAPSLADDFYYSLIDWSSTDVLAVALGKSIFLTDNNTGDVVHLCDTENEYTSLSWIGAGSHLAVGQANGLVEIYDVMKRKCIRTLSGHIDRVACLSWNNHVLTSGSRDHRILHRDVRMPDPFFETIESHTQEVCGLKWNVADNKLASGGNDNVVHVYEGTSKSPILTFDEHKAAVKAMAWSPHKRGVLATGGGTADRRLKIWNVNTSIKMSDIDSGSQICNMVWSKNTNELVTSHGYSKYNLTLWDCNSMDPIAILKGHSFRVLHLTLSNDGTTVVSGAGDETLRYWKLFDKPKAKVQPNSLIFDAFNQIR
# B2: APC/C activator protein CDH1 (Saccharomyces cerevisiae), P53197 (parent)
# chain: B1 partner
# B3: APC/C activator protein CDH1 (Saccharomyces cerevisiae), P53197 (parent)
# chain: B1 partner
# partner: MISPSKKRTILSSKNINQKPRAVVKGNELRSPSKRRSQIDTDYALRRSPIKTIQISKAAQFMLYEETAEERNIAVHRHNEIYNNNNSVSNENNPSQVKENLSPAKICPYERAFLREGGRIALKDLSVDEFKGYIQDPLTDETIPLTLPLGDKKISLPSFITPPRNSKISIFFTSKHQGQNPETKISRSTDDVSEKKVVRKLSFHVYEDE
# B4: APC/C-CDH1 modulator 1 (Saccharomyces cerevisiae), Q08981 (parent)
# chain: B3 partner
# partner: B1 partner
# Variants of: B1
# Conditions: with cdh1_yeast CDH1, P53197
row,effect of a mutation on the interaction,Variant
1,disrupting interaction,K775A
2,disrupting interaction,E776A
3,disrupting interaction,E781A
4,disrupting interaction,N777A

# Variants of: B2
# Conditions: with hsl1_yeast HSL1, P34244
row,effect of a mutation on the interaction,Variant
1,disrupting interaction,L255V
2,disrupting interaction,G535A

# The remaining lines, values behind:
row,Variant,effect of a mutation on the interaction
1,P258A,disrupting interaction
2,D536A,increasing interaction

# Variants of: B3
# Conditions: with acm1_yeast ACM1, Q08981
row,effect of a mutation on the interaction,Variant
1,disrupting interaction,P258A
2,disrupting interaction,L255V
3,increasing interaction,D536A
4,disrupting interaction,G535A

# Variants of: B4
# Conditions: with cdh1_yeast CDH1, P53197
row,effect of a mutation on the interaction,Variant
1,disrupting interaction,E66A
2,disrupting interaction,E99A
3,disrupting interaction,K98A
4,disrupting interaction,L122A

# The next lines start with the variant.
row,Variant,effect of a mutation on the interaction
1,R119A,disrupting interaction
2,E65D,disrupting interaction
3,N100A,disrupting interaction

# Variants of: B4
# Conditions: with cdh1_yeast CDH1, P53197
# Remark: another data set of the same source
row,effect of a mutation on the interaction,Variant
1,decreasing interaction,E66A
2,decreasing interaction,E65A
3,decreasing interaction,E69A
4,decreasing interaction,T67A

# Variants of: B4
# Conditions: with cdh1_yeast CDH1, P53197
# Remark: another data set of the same source
row,effect of a mutation on the interaction,Variant
1,disrupting interaction,E66D
2,disrupting interaction,E65A
3,disrupting interaction,E69A
4,disrupting interaction,T67A

# Variants of: B4
# Conditions: with cdh1_yeast CDH1, P53197
# Remark: another data set of the same source
row,effect of a mutation on the interaction,Variant
1,disrupting interaction,L11D
2,disrupting interaction,R8A
